Experiment [1] deals with IGF-II receptor (human, in membrane extracts of postmortem frontal lobe tissue) (human) (UniProt P11717). Nature of the experiment: saturation binding of [125I]-IGF-II to pooled human frontal lobe extracts, Braak 0-1; one-site fit/Scatchard.
Experiment [2] has the same target. Kind of experiment: saturation binding of [125I]-IGF-II to pooled human frontal lobe extracts, Braak 6; one-site fit/Scatchard.
Experiment [3] shares this target. Kind of experiment: saturation binding of [125I]-IGF-II to pooled human frontal lobe extracts, Braak 4-5; one-site fit/Scatchard.
Experiment [4] has the same target. Nature of the experiment: saturation binding of [125I]-IGF-II to pooled human frontal lobe extracts, Braak 2-3; one-site fit/Scatchard.

This note sets out measurements from patent publication EP1817050B1.

Sequence of IGF-II receptor (human, in membrane extracts of postmortem frontal lobe tissue) (human) (P11717 41-2491 limits assumed): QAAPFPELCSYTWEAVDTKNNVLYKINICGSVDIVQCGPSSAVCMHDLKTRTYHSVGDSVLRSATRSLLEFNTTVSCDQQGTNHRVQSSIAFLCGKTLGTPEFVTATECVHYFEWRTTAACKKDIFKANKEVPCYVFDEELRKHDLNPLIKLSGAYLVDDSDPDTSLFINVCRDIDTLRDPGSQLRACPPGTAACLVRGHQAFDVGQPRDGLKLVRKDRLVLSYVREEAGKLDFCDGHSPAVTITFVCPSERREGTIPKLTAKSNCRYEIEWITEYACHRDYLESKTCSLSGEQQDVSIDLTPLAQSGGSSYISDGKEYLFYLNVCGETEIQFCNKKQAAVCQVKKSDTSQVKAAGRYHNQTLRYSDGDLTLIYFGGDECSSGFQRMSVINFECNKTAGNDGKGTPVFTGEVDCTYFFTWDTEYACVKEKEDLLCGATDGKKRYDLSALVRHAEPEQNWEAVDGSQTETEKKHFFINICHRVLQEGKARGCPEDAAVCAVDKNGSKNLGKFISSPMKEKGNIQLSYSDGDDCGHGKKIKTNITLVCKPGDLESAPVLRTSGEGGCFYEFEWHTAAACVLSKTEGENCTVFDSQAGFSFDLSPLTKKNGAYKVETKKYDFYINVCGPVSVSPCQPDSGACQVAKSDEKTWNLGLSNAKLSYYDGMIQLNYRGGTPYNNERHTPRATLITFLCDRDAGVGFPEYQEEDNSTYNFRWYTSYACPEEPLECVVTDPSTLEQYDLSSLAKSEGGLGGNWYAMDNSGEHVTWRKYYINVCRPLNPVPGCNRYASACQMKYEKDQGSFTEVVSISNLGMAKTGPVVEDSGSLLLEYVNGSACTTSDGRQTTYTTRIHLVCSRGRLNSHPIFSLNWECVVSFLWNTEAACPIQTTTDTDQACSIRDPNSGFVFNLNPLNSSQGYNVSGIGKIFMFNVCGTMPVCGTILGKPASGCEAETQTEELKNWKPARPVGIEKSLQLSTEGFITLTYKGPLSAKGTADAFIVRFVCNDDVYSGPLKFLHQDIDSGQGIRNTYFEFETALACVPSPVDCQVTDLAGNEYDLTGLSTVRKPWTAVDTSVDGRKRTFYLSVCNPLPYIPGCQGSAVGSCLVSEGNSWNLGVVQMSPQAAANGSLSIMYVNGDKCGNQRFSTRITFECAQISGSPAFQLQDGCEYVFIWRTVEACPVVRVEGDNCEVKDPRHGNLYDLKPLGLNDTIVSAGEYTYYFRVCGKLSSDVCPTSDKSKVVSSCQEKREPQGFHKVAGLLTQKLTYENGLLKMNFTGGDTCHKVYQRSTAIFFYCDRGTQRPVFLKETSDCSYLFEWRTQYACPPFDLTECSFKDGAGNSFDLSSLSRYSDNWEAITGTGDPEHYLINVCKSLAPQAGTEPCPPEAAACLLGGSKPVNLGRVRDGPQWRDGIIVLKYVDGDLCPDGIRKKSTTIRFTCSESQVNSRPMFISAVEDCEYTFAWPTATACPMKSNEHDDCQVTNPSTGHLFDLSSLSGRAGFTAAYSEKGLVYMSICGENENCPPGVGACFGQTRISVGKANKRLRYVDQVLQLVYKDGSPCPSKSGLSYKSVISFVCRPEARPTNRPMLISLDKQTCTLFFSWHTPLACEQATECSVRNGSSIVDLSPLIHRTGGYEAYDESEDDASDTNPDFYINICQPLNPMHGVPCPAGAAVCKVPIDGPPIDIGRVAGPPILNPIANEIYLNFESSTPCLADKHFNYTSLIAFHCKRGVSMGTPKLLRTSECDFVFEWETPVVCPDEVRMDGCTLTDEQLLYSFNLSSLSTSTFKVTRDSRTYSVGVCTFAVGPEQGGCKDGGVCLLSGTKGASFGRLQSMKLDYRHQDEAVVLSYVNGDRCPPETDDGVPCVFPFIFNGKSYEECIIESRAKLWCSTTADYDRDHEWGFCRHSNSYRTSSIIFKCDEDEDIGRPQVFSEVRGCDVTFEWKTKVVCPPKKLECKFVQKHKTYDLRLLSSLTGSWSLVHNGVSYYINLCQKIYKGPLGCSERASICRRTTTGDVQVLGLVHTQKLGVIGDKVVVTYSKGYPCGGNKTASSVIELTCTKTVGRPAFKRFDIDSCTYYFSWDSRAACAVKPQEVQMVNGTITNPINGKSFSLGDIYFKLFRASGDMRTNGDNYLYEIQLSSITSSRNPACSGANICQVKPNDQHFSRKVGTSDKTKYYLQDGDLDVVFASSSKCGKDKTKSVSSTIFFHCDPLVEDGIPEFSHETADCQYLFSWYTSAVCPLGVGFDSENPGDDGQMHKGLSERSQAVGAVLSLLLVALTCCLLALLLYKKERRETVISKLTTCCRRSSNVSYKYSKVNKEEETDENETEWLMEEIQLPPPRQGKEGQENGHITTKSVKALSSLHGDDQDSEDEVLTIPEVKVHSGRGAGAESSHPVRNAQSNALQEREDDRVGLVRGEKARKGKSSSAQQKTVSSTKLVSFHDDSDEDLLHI

Consider [125I]-labeled IGF-II (ligand), for which the BMAX (fmol/mg protein) in experiment [1] is 16.8; in experiment [2] it was 4.71; in experiment [3], 8.14; in experiment [4], 12.5.
